Test results: the DeepSol protein solubility set

Test: soluble on expression in E. coli; label from the status in PepcDB or PDB records

| Sequence | soluble on expression in E. coli |
| --- | --- |
| MSLQGIHTISFVGLGLIGASLMQALKRAAGATGRNIEMIGFDPAFDAADIVAITGECGLDRFEPDPAKLYNADLVVLCAPVVTNIALLDEAKRHIRKDTLVSDVSSTKAEIAAKAQELGIEFIGMHPIAGREQQGYQAASPELLDGRLVILCTECATLETTLATELAGLLRAAGCKPLFMSPEEHDRVYANISHLPQLISTALMAHCRENVEWAGPGFASMARLAGSPWAVWRDIVETNRSNIADEMEAFSALLADVAGEVRGGNFEALESKFREANDLYQRLQERSSEGHHHHHH | soluble |
| KKILVIGDLIADYYLWGKSERLSPEAPVPVLEVQRESKNLGGAANVANNLISLKAKVFLCGVVGDDLEGEHFISALKARGIDASGILIDKTRCTTLKTRIIAQNQQIARVDKEIKDPLNADLRKKLLDFFTEKIQEIDGVILSDYNKGVLDFELTQAMIALANQHHKLILCDPKGKDYSKYSHASLITPNRTELEHALHLKLDSHANLSKALQILKETYHIAMPLVTLSEQGIAFLEKGELVNCPTIAKEVYDVTGAGDTVIASLTLSLLESMSLKDACEFANAAAAVVVGKMGSALASLEEIALILNQTHPKILSLE | not soluble |
| MAHHHHHHMADLYDVLGILHDAEDDAIAKAYRRHSMAVNPQCNPDHPDPAALEKQFKHVSQAYVVLSNPKARGIYDLYGEEGVRHGGTGAQGIPGGIDLDAIDPYAVFRSFFGVDNPFQVIGEINGLRNNRHNFFSSTAVIPKSLVKAPSIEVQLPVTLEDVYYGAVRRASWKCSFVRQGNETVVEEFFELRVPKGAHAGDKFVVDGKGDWEEGRARGDVVVVLELLPHERFRREGDDLVVRVPITLREALCGVTLTVQTMEGTDVAVLIDEIVHPKYSRRVVGQGLPRNDEPSNPRGDLIVECDTTFPGFLTLEQKSELSRILDAK | not soluble |
| MNKLVCSTFAILAIIAISQVQSAVLPVSSKEVALITSSASTTSSSETSIDTLGSSRVKRQGGCGCCGCGCGCCGCGGGGGGGCGCCCCRPKCCCCCRRCCTCCRTCCCTRCCTCCRPCCCGCGCGCGCCGCGGGGRKRRSLQNLRIALANKIEGIAKVVKGSAVEASVMNALAPVNDATVEEKKDVIN | not soluble |
| SMSRPDQAARRRAIAAELHVSPTFDARDEAERRIGFVADYLRTAGLRACVLGISGGIDSSTAGRLAQLAVERLRASGYDARFVAMRLPYGAQHDEADARRALAFVRADETLTVDVKPAADAMLAALAAGGLAYLDHAQQDFVLGNIKARERMIAQYAVAGARNGVVIGTDHAAESVMGFFTKFGDGGADVLPLAGLTKRRVRALARMLGADEPLVLKTPTADLETLRPQRPDEHAYGITYEQIDDFLEGKPMDDAVAETVLRFYDATRHKRALPYTMFDWPGHPA | soluble |
| MSEIDLTSEYSCSKHSKNPETAGEEFDVKVEKIYEDLKNSSIERQEDIPYFPNGEMTRIDIWGPETAEKVFIMIHGGYWLIGNRKKCLAVVHVAQKLGYTVVSVGYDYANKDHVLSKTIVEALEGVQFALKKFKNAKKIVIGGHSVGAHLAFQAVTRIHDPRISGAYLSAGIYKIQELTSTTYGHDLGLTSEEAETCSCDYELMKHVRFPVLIACCRRESPKLYQQNQDFSSQVANAQYKV | not soluble |
| MKRLTERVIIMKGAGEMATGVACRLHRSGFRRILMLEAPSPLAVRRGVSFCEAIHNGRKSVEGIEAVRIENGSALADAWGKGEIPLLADPQGDAVRRMEPDILIDATIAKRNLGIAITDAPLVIALGPGFFAGRDCHLVIETNRGHNLGRLIACGEAEPNTGIPGNIGGYTRERVLRAPADGHFTTEKVIGDQVSKGDVVGIVGTNTVTASIDGILRGLIRPGTHVTTGLKIGDIDPRGDTAYCHTISEKARALGGSVLEAILTVYNQLEHHHHHH | not soluble |
| MGHHHHHHSHMSTVAFHTLGCKVNHYETEAIWQLFKQGGYERTEYEKKADVYVINTCTVTNTGDKKSRQVIRRAVRQNPDAVICVTGCYAQTSPAEIMAIPGVDIVVGTQDREKMLGYIEEFRKERQPINAVRNIMKTRVYEELDVPYFTDRTRASLKIQEGCNNFCTFCIIPWARGLMRSRDGKEVIKQAQQLVDAGYKEIVLTGIHTGGYGEDIKDYNLAGLLRDMEAEVGGLKRLRISSIEASQISDEVIEVLDKSEVVVRHLHIPLQSGSNTVLKRMRRKYTMEFFQERLDRLKEALPGLAITSDVIVGFPGETEEEFMETYNFIKENRFSELHVFPYSKRTGTPAARMEDQVPEDVKNDRVHRLIELSNQLAKEYASAFEGEVLEIIPEEQFKDGDREGLYVGYTDNYLKIVFEGSEELIGKLVKVKITKAGYPYNEAQFVRVLEDDVKKESASA | soluble |
| MGSDKIHHHHHHMQDLNDLSLFAQVVEHGSFSAASRATGIPKSRLSRRIAQLERDLGVQLLRRTTRQVRVTPLGESYYERCRAMLKEAEAAHEVIEQARDQPGGTLRVSCPVAIAQILLAPAIGHFMRANPAVRIELEATNRRVDVIGEGYDLSLRVRDVLEDSSLAVRTFGESQLMLVASPGLLDSIGRPRTPQALDGMPGVGQKPHDGKHVWVLGCKSGETIQIAYDPRLVTDEFSLLREAAIAGIGVAMLPRMYCRDAIDAGELELLLPQWEMPVGTLHAVFPSRKGVTPAVRRFLDFLSEILPENARKVGMHEPRQPAMHRAV | not soluble |
| MSLEKEAFMEKLLSFMKEEAYKPLTVQELEEMLNITEAEEFKELVKALVALEEKGLIVRTRSDRYGIPEKMNLIKGKISAHAKGFAFLLPEDTSLSDVFIPPNELNTAMNGDIVMVRLNSQSSGSRQEGTVIRILERAIQRVVGTYTETRNFGFVIPDDKKITSDIFIPKNGKNGAAEGHKVVVKLTSYPEGRMNAEGEVETILGHKNDPGIDILSVIHKHGLPGEFPADAMEQASSTPDTIDEKDLKDRRDLRDQVIVTIDGADAKDLDDAVTVTKLDDGSYKLGVHIADVSHYVTENSPIDKEALERGTSVYLVDRVIPMIPHRLSNGICSLNPKVDRLTLSCEMTINSQGQVTEHEIFQSVIKTTERMTYSDVNKILVDDDEELKQKYEPLVPMFKDMERLAQILRDKRMDRGAVDFDFKEAKVLVDDEGAVKDVVIRERSVAEKLIEEFMLVANETVAEHFHWMNVPFIYRIHEEPNAEKLQKFLEFVTTFGYVVKGTAGNIHPRALQSILDAVRDRPEETVISTVMLRSMKQAKYDPQSLGHFGLSTEFYTHFTSPIRRYPDLIVHRLIRTYLINGKVDEATQEKWAERLPDIAEHTSSMERRAVDAERETDDLKKAEYMLDKIGEEFDGMISSVTNFGMFVELPNTIEGLVHVSFMTDDYYRFDEQHFAMIGERTGNVFRIGDEITVKVVDVNKDERNIDFEIVGMKGTPRRPRELDSSRSRKRGKPARKRVQSTNTPVSPAPSEEKGEWFTKPKKKKKKRGFQNAPKQKRKKKKEGHHHHHH | soluble |
| MTLPQTMKAAVVHAYGAPLRIEEVKVPLPGPGQVLVKIEASGVCHTDLHAAEGDWPVKPPLPFIPGHEGVGYVAAVGSGVTRVKEGDRVGIPWLYTACGCCEHCLTGWETLCESQQNTGYSVNGGYAEYVLADPNYVGILPKNVEFAEIAPILCAGVTVYKGLKQTNARPGQWVAISGIGGLGHVAVQYARAMGLHVAAIDIDDAKLELARKLGASLTVNARQEDPVEAIQRDIGGAHGVLVTAVSNSAFGQAIGMARRGGTIALVGLPPGDFPTPIFDVVLKGLHIAGSIVGTRADLQEALDFAGEGLVKATIHPGKLDDINQILDQMRAGQIEGRIVLEM | soluble |
| MGSDKIHHHHHHMNIGGGKFLLGRISNNPTSGIVGLANVGKSTFFQAITNSKLGNPANYPFATIDAECAKVNIPSVPLSNLLRIYQSAKCVPGTLTIYDIAGLTRGASQGHGLGNKFLNDIRHVEGIFQVVRGFLKEDITHIEGNVDPVRDLSVVQDELILKDLEFLENIRERLSKKMRMVSKNSKEHQEMKIETELLDALEEHLFNGKKIRHFKDHWNLDEVKILNKHNFLTSKPTLILLNVSPQDYVRNENKFVRNIIEWINEFSPGDKFLLFSAEFESQLMECKGIASEYFDKIKEDTNVSDQQLVSAIPQIILEMRKLLNLISFFTCGPQEVHQWNIREGTTAQEAAGVIHSDLRETFISADVIKYDDLKKMEPPLNESLLKSKGLIKRAGKQYIMQDNDIALFKAAGGKIKK | not soluble |
| MCHSGTFHLTAGESVEWVLTWAPSFEPHPPMPDYTRSLESTLSFWASWVEELPHQRLYDAEVRRSMLVLRALTDLQTGGIVAAPTTSLPEDFGGIRNWDYRYVWLRDSALTIEALVEYGFSQAALQWRTWLLRAIAGDPENLRIMYGLGGERHLPERELQHLRGYENSVPVRVGNGAAEQYQADVVGEVMVALETIRRAGCLEDEFSWGMQKAILDFQEANFDRKDQGIWEMRSEPQYFTHGRAMMWAGFDRGIKAIEEFNLDGPIERWRELRAKLREEIMTNGFNEEIQSFTQCYDNTQVDASLLQLAQIGFIGFDDPKMLSTVARIEQELLDAHGFLHRYHTDGSDGLAGDEYPFLICSFWLVEQYASSNRLDEAKEKMNRILAVQSPLGLLAEEYSTHHGRLAGNYPQAFSHIGLISAARAINFEEARNRLEHHHHHH | soluble |
| MVDSIIFDLDGTLWDSTEEVCKVWQDVLSEHKEIELSVTKDLFRSLMGLSFEEIANRLFPNLSEEERMNLLNECSLKECDYLSENGAKLFDDIEDTLKLLSKKYKLFIVSNCQAGYIESFLKAHKLEQYFIDFECPGNTGLHKGENNKLIIERNKLINPIYVGDTQGDANSAKFVGIPFIYAKYGFGNVDVYDYFIDSFKDLLEHDILK | not soluble |
| GPGSMPNEKAQTLTVAEAFAETSKALQQFNIERIRVDGLSRGNACDEEKFRMLTEQEFMREFVFHSRPCIIVGALCDWPALQRWRDDRYLFDLDEKLPMVYEKERTSKGNGEINENDSFHEDEEIVTESDAEDSKNGTSNNEAESQGTLGPRRVTVALTPNGRADAVTYVTYNAVKNESQVHDKLEGKSDFVVTEKLFMSAAELRVTLPELYRLLRANPLVPPLKSQFVDLRRPQRSIAYAQMQNNCLAEEYQHLHADIDTALDRFGTRVFGGKREAANIWLGTPASVSSMHQDWVENLYAVVRGVKEFILVPPWEGVFVPKPELPAAAFTLKAAANCKEGEEEYIFSDSPTRDGTSVPWMDVELTPAAVDDPLHIKEELRDKLHPLIAYVQPGEVLYLPALWLHRVAQHADSEDSRVIEEASTEEIAKVSRHDQKHSAPLPLIAAVNYWYDMSFTNPAVVMLREFGLLL | not soluble |
| PKTVQDLTSVVQTLLQQMQDKFQTISDQIIGRIDDMSSRIDDLEKNIA | soluble |
| GHMKSEKEKMLAGHLYNPADLELVKERERARRLVRLYNETLETEYDKRTGLLKELFGSTGERLFIEPNFRCDYGYNIHVGENFFMNFDGVILDVCEVRIGDHCFIGPGVHIYTATHPLDPHERNSGLEYGKPVVIGHNVWIGGRAVINPGVTIGDNAVIASGAVVTKDVPANAVVGGNPAKVIKWLK | soluble |
| MNSCDFRVFLQEFGTTVHLSLPGSVSEKERLLLKLLMQGMSVTEISQYRNRSAKTISHQKKQLFEKLGIQSDITFWRDIFFQYNPEIISATGSNSHRYINDNHYHHIVTPEAISLALENHEFKPWIQPVFCAQTGVLTGCEVLVRWEHPQTGIIPPDQFIPLAESSGLIVIMTRQLMKQTADILMPVKHLLPDNFHIGINVSAGCFLAAGFEKECLNLVNKLGNDKIKLVLELTERNPIPVTPEARAIFDSLHQHNITFALDDFGTGYATYRYLQAFPVDFIKIDKSFVQMASVDEISGHIVDNIVELARKPGLSIVAEGVETQEQADLMIGKGVHFLQGYLYSPPVPGNKFISEWVMKAGG | soluble |
| ALSGGFIKGFAHLGVIQALLEHDIKPDIISGVSAGALAGVFYADGNEPYRVLDYFSGHKFQDLTKLVIPKVGLFALGEFIDFLKSNLKAQKLEDLKLPLIITATDLDHGRSMHFHKGNIAERVAASCCMPVLFTPVKIGNTHYVDGGLLMNLPVSTIRNECEKVVAVNVSPLMAEKYKMNIVSIAMRSYHFMFRANTFPERDNCDLLIEPYNLEGYSNTELEKAEEIFEQGYNTASE | not soluble |
